Assay results: the Immune Epitope Database (IEDB)
Blank lines part the entries; values can stand above or below the sequence they belong to.

Tests used:
HLA-B*46:01 = experiment: IEDB peptide-MHC binding, purified MHC/direct/fluorescence; filed as Kd, often an IC50 or EC50 that approximates it; ≥ and ≤ were set here for values at or beyond the usual limits of such assays; settings: source organism: Mycobacterium tuberculosis
HLA-B*18:01 = experiment: as above; settings: source organism: Mycobacterium tuberculosis
HLA-B*58:01 [1] = experiment: as above
HLA-A*31:01 = experiment: as above
HLA-B*48:01 = experiment: as above; settings: source organism: Mycobacterium tuberculosis
HLA-B*08:01 = experiment: as above
HLA-B*51:01 [2] = experiment: as above
HLA-A*11:01 = experiment: as above
HLA-A*69:01 = experiment: as above
HLA-B*40:01 = experiment: as above
HLA-A*01:01 = experiment: as above
HLA-A*02:01 [3] = experiment: as above
HLA-B*57:01 [4] = experiment: as above; settings: source organism: Mycobacterium tuberculosis
HLA-B*27:05 = experiment: as above
HLA-B*08:02 = experiment: as above; settings: source organism: Mycobacterium tuberculosis str. Haarlem
HLA-A*03:01 = experiment: as above
HLA-B*15:42 = experiment: IEDB peptide-MHC binding, purified MHC/competitive/fluorescence; filed as Kd, often an IC50 or EC50 that approximates it; ≥ and ≤ were set here for values at or beyond the usual limits of such assays
HLA-B*83:01 = experiment: as above
HLA-B*15:01 [5] = experiment: as above
HLA-B*45:06 = experiment: as above
HLA-A*30:01 [6] = experiment: as above; settings: source organism: Mycobacterium tuberculosis C
HLA-B*58:01 [7] = experiment: IEDB peptide-MHC binding, purified MHC/competitive/radioactivity; filed as Kd, often an IC50 or EC50 that approximates it; ≥ and ≤ were set here for values at or beyond the usual limits of such assays
HLA-B*57:01 [8] = experiment: as above
HLA-A*32:01 = experiment: as above; settings: source organism: Dengue virus 2 Jamaica/1409/1983
HLA-C*12:03 = experiment: IEDB peptide-MHC binding, purified MHC/direct/fluorescence; filed as Kd, often an IC50 or EC50 that approximates it; ≥ and ≤ were set here for values at or beyond the usual limits of such assays
HLA-A*30:01 [9] = experiment: IEDB peptide-MHC binding, purified MHC/competitive/radioactivity; filed as Kd, often an IC50 or EC50 that approximates it; ≥ and ≤ were set here for values at or beyond the usual limits of such assays; settings: source organism: Dengue virus 1 Brazil/97-11/1997
HLA-B*15:17 = experiment: IEDB peptide-MHC binding, purified MHC/direct/fluorescence; filed as Kd, often an IC50 or EC50 that approximates it; ≥ and ≤ were set here for values at or beyond the usual limits of such assays; settings: source organism: Mycobacterium tuberculosis
HLA-B*15:01 [10] = experiment: as above
HLA-B*51:01 [11] = experiment: IEDB peptide-MHC binding, purified MHC/competitive/fluorescence; filed as Kd, often an IC50 or EC50 that approximates it; ≥ and ≤ were set here for values at or beyond the usual limits of such assays; settings: source organism: Vibrio vulnificus CMCP6
HLA-B*39:01 = experiment: as above; settings: source organism: Salmonella enterica subsp. enterica serovar Typhi
HLA-A*02:01 [12] = experiment: as above
HLA-A*02:12 = experiment: as above; settings: source organism: Shigella dysenteriae Sd197
HLA-B*07:02 = experiment: IEDB peptide-MHC binding, purified MHC/direct/fluorescence; filed as Kd, often an IC50 or EC50 that approximates it; ≥ and ≤ were set here for values at or beyond the usual limits of such assays; settings: source organism: Corynebacterium glutamicum
HLA-A*26:01 = experiment: as above; settings: source organism: Corynebacterium glutamicum
[13] = source organism: Mycobacterium tuberculosis
[14] = source organism: Mycobacterium tuberculosis str. Haarlem
[15] = source organism: Mycobacterium tuberculosis C
[16] = source organism: Dengue virus 2 Jamaica/1409/1983
[17] = source organism: Dengue virus 1 Brazil/97-11/1997
[18] = source organism: Dengue virus 3 Martinique/1243/1999
[19] = source organism: Dengue virus 1 Singapore/S275/1990
[20] = source organism: West Nile virus
[21] = source organism: Salmonella enterica subsp. enterica serovar Typhi
[22] = source organism: Corynebacterium glutamicum
[23] = source organism: Corynebacterium glutamicum ATCC 13032

Sequence: APRARTAAF
Kd (HLA-B*46:01): ≥ 20 µM | Kd (HLA-B*18:01): 12.3 µM | Kd (HLA-B*58:01 [1]; [13]): ≥ 20 µM | Kd (HLA-A*31:01; [13]): ≥ 20 µM | Kd (HLA-B*48:01): ≥ 20 µM | Kd (HLA-B*08:01; [14]): 5 nM | Kd (HLA-B*51:01 [2]; [13]): ≥ 20 µM | Kd (HLA-A*11:01; [13]): ≥ 20 µM | Kd (HLA-A*69:01; [13]): ≥ 20 µM | Kd (HLA-B*40:01; [13]): ≥ 20 µM | Kd (HLA-A*01:01; [13]): ≥ 20 µM | Kd (HLA-A*02:01 [3]; [13]): ≥ 20 µM | Kd (HLA-B*57:01 [4]): ≥ 20 µM | Kd (HLA-B*27:05; [13]): ≥ 20 µM | Kd (HLA-B*08:02): 230 nM | Kd (HLA-A*03:01; [13]): ≥ 20 µM | Kd (HLA-B*15:42; [15]): ≥ 5 µM | Kd (HLA-B*83:01; [15]): 52.6 nM | Kd (HLA-B*15:01 [5]; [15]): ≥ 20000 nM | Kd (HLA-B*45:06; [15]): ≥ 5 µM | Kd (HLA-A*30:01 [6]): ≥ 20 µM

Sequence: KSIEDNPEI
Kd (HLA-B*58:01 [7]; [16]): 5.48 nM

Sequence: TASILLWYAQ
Kd (HLA-B*58:01 [7]; [16]): 1010 nM | Kd (HLA-B*57:01 [8]; [16]): 29 nM | Kd (HLA-A*32:01): ≥ 33.1 µM

Sequence: FSLENVRLM
Kd (HLA-C*12:03; source organism: Leishmania panamensis): 772 nM

Sequence: KVRKDIPQW
Kd (HLA-B*58:01 [7]; [17]): 5.97 nM | Kd (HLA-B*57:01 [8]; [17]): 35.5 nM | Kd (HLA-A*30:01 [9]): 254 nM

Sequence: IASAIVLEFF
Kd (HLA-B*58:01 [7]; [18]): 21 nM | Kd (HLA-B*57:01 [8]; [18]): 883 nM

Sequence: APRGFRAAF
Kd (HLA-B*46:01): ≥ 20 µM | Kd (HLA-B*18:01): ≥ 20 µM | Kd (HLA-B*58:01 [1]; [13]): ≥ 20 µM | Kd (HLA-A*31:01; [13]): ≥ 20 µM | Kd (HLA-B*48:01): ≥ 20 µM | Kd (HLA-B*08:01; [14]): 100 nM | Kd (HLA-B*51:01 [2]; [13]): ≥ 20 µM | Kd (HLA-A*11:01; [13]): ≥ 20 µM | Kd (HLA-B*15:17): 5.45 µM | Kd (HLA-A*69:01; [13]): ≥ 20 µM | Kd (HLA-B*40:01; [13]): ≥ 20 µM | Kd (HLA-B*15:01 [10]; [13]): ≥ 20 µM | Kd (HLA-A*01:01; [13]): ≥ 20 µM | Kd (HLA-A*02:01 [3]; [13]): ≥ 20 µM | Kd (HLA-B*57:01 [4]): ≥ 20 µM | Kd (HLA-B*27:05; [13]): ≥ 20 µM | Kd (HLA-A*03:01; [13]): ≥ 20 µM | Kd (HLA-B*15:42; [15]): ≥ 5 µM | Kd (HLA-B*83:01; [15]): 38 nM | Kd (HLA-B*45:06; [15]): ≥ 5 µM

Sequence: VASEGIKYTD
Kd (HLA-B*58:01 [7]; [18]): 340 nM | Kd (HLA-B*57:01 [8]; [18]): 5160 nM

Sequence: FAFHTVFHI
Kd (HLA-C*12:03; source organism: Vibrio vulnificus CMCP6): ≤ 1 nM | Kd (HLA-B*51:01 [11]): 42.9 nM

Sequence: NASDRMGMGT
Kd (HLA-B*58:01 [7]; [19]): 5120 nM | Kd (HLA-B*57:01 [8]; [19]): 652 nM

Sequence: RVYSDHQAL
Kd (HLA-B*51:01 [2]; [20]): ≥ 20 µM | Kd (HLA-C*12:03; [20]): 650 nM

Kd (HLA-C*12:03; source organism: Homo sapiens): 90 nM
Sequence: YLQQNTHTL

Sequence: TQFAGVVTV
Kd (HLA-C*12:03; source organism: Salmonella enterica subsp. enterica serovar Typhi str. CT18): 3 nM | Kd (HLA-B*39:01): 1.7 nM | Kd (HLA-B*15:01 [5]; [21]): 212 nM | Kd (HLA-A*02:01 [12]; [21]): 0.5 nM

Sequence: SVFSRPLPL
Kd (HLA-A*02:01 [12]; source organism: Shigella dysenteriae Sd197): ≤ 0.1 nM | Kd (HLA-A*02:12): 184 nM

Sequence: GAVFQEEQGW
Kd (HLA-B*58:01 [7]; source organism: Dengue virus 4 Philippines/H241/1956): 18.5 nM

Sequence: RAVHADMGYW
Kd (HLA-B*58:01 [7]; [16]): 0.235 nM

Kd (HLA-B*58:01 [1]; [22]): ≥ 20 µM | Kd (HLA-A*31:01; [22]): ≥ 20 µM | Kd (HLA-B*08:01; [22]): ≥ 20000 nM | Kd (HLA-A*11:01; [22]): ≥ 20 µM | Kd (HLA-A*69:01; [22]): ≥ 20 µM | Kd (HLA-B*40:01; [22]): 0.0549 µM | Kd (HLA-B*15:01 [10]; [22]): ≥ 20 µM | Kd (HLA-B*07:02): 8.99 µM | Kd (HLA-A*01:01; [22]): ≥ 20 µM | Kd (HLA-A*26:01): ≥ 20 µM | Kd (HLA-A*02:01 [3]; [22]): ≥ 20 µM | Kd (HLA-B*27:05; [22]): ≥ 20 µM | Kd (HLA-A*03:01; [22]): ≥ 20 µM | Kd (HLA-B*15:42; [23]): ≥ 5 µM | Kd (HLA-B*83:01; [23]): ≥ 5000 nM | Kd (HLA-B*45:06; [23]): ≥ 5 µM
Sequence: AEHDPWWAV
